Measurements as given in paper PMC4230899, “Diverse allosteric and catalytic functions of tetrameric D-lactate dehydrogenases from three Gram-negative bacteria” (AMB Express, 2014).

Assays:
[1] = target: T1, ECLDH (Escherichia coli, UniProt P52643); test: NADH absorbance at […] nm, pyruvate reduction, nonlinear regression; assay type: biochemical
T1 construct: gene ldhA
T1 sequence (P52643 1-329): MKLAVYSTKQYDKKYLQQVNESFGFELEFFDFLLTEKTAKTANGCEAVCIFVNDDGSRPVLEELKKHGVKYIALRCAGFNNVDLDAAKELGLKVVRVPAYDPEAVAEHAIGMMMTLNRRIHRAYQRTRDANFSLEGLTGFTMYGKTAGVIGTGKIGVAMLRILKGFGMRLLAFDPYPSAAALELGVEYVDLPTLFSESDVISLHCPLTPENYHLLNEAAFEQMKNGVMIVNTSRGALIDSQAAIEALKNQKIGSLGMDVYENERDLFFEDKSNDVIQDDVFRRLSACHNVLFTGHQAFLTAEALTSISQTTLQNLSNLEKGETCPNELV

[2] = target: T2, FNLDH (Fusobacterium nucleatum, UniProt Q8RG11); test: as above; assay type: biochemical
T2 construct: gene FN0511
T2 sequence (Q8RG11 1-335): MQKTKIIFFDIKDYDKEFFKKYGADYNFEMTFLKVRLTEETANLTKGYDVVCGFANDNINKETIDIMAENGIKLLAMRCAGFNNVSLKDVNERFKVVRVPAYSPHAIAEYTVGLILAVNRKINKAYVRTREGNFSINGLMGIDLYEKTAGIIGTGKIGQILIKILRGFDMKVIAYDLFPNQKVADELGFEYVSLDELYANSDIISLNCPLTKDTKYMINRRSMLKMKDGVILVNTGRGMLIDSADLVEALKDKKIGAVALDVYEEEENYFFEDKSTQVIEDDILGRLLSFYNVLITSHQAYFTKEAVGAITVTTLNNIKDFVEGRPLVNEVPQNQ

[3] = target: T3, PALDH (Pseudomonas aeruginosa, UniProt Q9I530); test: as above; assay type: biochemical
T3 construct: gene ldhA
T3 sequence (Q9I530 1-329): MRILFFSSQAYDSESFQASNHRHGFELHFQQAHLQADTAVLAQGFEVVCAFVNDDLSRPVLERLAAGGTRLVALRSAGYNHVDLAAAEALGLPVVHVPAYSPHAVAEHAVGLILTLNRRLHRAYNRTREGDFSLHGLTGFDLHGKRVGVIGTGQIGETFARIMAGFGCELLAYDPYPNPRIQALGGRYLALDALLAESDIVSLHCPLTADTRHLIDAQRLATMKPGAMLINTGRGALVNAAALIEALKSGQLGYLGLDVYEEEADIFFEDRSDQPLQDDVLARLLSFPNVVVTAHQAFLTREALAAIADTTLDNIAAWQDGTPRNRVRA

[4] = target: T1, ECLDH; test: NADH absorbance at […] nm, activation of pyruvate reduction, Hill fit; assay type: biochemical; settings: slight activator, half-saturation for activation; 7.5 mM pyruvate, 0.1 mM NADH; 50 mM Bicine-NaOH pH 8.0; 30 °C; read-out: S 0.5
[5] = target: NAD-dependent D-lactate dehydrogenase from Pseudomonas aeruginosa (Pseudomonas aeruginosa JCM8532 (=PAO1)); test: SEC; Superdex 200 (Hiload 16/60), 1 ml of 1 mg/ml protein, 50 mM sodium acetate pH 5.0 with 150 mM NaCl; calibrated with standard proteins; apparent molecular weight against theoretical subunit weight
[6] = substrate: CC(=O)C(=O)O; test: purified protein; assay type: biochemical, Fusobacterium nucleatum; settings: 0.1 mM NADH, pH 7.0, 30 °C, no effector
[7] = substrate: CCC(=O)C(=O)O; test: purified protein; assay type: biochemical, Fusobacterium nucleatum; settings: 0.1 mM NADH, pH 7.0, 30 °C
[8] = substrate: CCCC(=O)C(=O)O; test: purified protein; assay type: biochemical, Fusobacterium nucleatum; settings: 0.1 mM NADH, pH 7.0, 30 °C
[9] = substrate: NC(=O)C1=CN([C@@H]2O[C@H](COP(=O)(O)OP(=O)(O)OC[C@H]3O[C@@H](n4cnc5c(N)ncnc54)[C@H](O)[C@@H]3O)[C@@H](O)[C@H]2O)C=CC1; test: purified protein; assay type: biochemical, Fusobacterium nucleatum; settings: saturating pyruvate, pH 7.0, 30 °C, no effector, apparent, varied: cofactor
[10] = substrate: O=C(O)CC(=O)C(=O)O; test: purified protein; assay type: biochemical, Fusobacterium nucleatum; settings: 0.1 mM NADH, pH 7.0, 30 °C, fit with substrate inhibition
[11] = target: the molecule itself; test: SEC; Superdex 200 (Hiload 16/60), 1 ml of 1 mg/ml protein, 50 mM HEPES-NaOH pH 8.0 with 150 mM NaCl; calibrated with standard proteins; apparent molecular weight against theoretical subunit weight
[12] = substrate: CC(=O)C(=O)O; test: purified protein; assay type: biochemical, Pseudomonas aeruginosa; settings: 0.1 mM NADH, pH 7.0, 30 °C, no effector, fit with substrate inhibition
[13] = substrate: CCC(=O)C(=O)O; test: purified protein; assay type: biochemical, Pseudomonas aeruginosa; settings: 0.1 mM NADH, pH 7.0, 30 °C
[14] = substrate: NC(=O)C1=CN([C@@H]2O[C@H](COP(=O)(O)OP(=O)(O)OC[C@H]3O[C@@H](n4cnc5c(N)ncnc54)[C@H](O)[C@@H]3O)[C@@H](O)[C@H]2O)C=CC1; test: purified protein; assay type: biochemical, Pseudomonas aeruginosa; settings: saturating pyruvate, pH 7.0, 30 °C, no effector, apparent, varied: cofactor
[15] = substrate: O=C(O)C(=O)CO; test: purified protein; assay type: biochemical, Pseudomonas aeruginosa; settings: 0.1 mM NADH, pH 7.0, 30 °C, fit with substrate inhibition
[16] = substrate: O=C(O)CC(=O)C(=O)O; test: purified protein; assay type: biochemical, Pseudomonas aeruginosa; settings: 0.1 mM NADH, pH 7.0, 30 °C
[17] = substrate: CC(=O)C(=O)O; test: purified protein; assay type: biochemical, Escherichia coli; settings: 0.1 mM NADH, pH 7.0, 30 °C, no effector, Hill fit
[18] = substrate: NC(=O)C1=CN([C@@H]2O[C@H](COP(=O)(O)OP(=O)(O)OC[C@H]3O[C@@H](n4cnc5c(N)ncnc54)[C@H](O)[C@@H]3O)[C@@H](O)[C@H]2O)C=CC1; test: purified protein; assay type: biochemical, Escherichia coli; settings: saturating pyruvate, pH 7.0, 30 °C, no effector, apparent, varied: cofactor
[19] = substrate: O=C(O)C(=O)CO; test: purified protein; assay type: biochemical, Escherichia coli; settings: 0.1 mM NADH, pH 7.0, 30 °C
[20] = substrate: O=CC(=O)O; test: purified protein; assay type: biochemical, Escherichia coli; settings: 0.1 mM NADH, pH 7.0, 30 °C, Hill fit

NC(=O)C(=O)O [Oxamate]
Ki [1]: 20 ± 2 mM | Ki [2]: 9.4 ± 0.2 mM | Ki [3]: 0.29 ± 0.04 mM

O=P(O)(O)OC[C@H]1OC(O)(COP(=O)(O)O)[C@@H](O)[C@@H]1O (stereo partly shown) [FBP]
EC50 [4]: 1.3 mM

NAD-dependent D-lactate dehydrogenase from Pseudomonas aeruginosa (enzyme)
stoichiometry N [5]: 3

B1: NAD-dependent D-lactate dehydrogenase from Fusobacterium nucleatum subsp. nucleatum (enzyme, UniProt Q8RG11 1-335, looked up)
chain: MQKTKIIFFDIKDYDKEFFKKYGADYNFEMTFLKVRLTEETANLTKGYDVVCGFANDNINKETIDIMAENGIKLLAMRCAGFNNVSLKDVNERFKVVRVPAYSPHAIAEYTVGLILAVNRKINKAYVRTREGNFSINGLMGIDLYEKTAGIIGTGKIGQILIKILRGFDMKVIAYDLFPNQKVADELGFEYVSLDELYANSDIISLNCPLTKDTKYMINRRSMLKMKDGVILVNTGRGMLIDSADLVEALKDKKIGAVALDVYEEEENYFFEDKSTQVIEDDILGRLLSFYNVLITSHQAYFTKEAVGAITVTTLNNIKDFVEGRPLVNEVPQNQ
notes: FN0511 protein (FNLDH), NAD-dependent D-lactate dehydrogenase of Fusobacterium nucleatum subsp. nucleatum JCM14847 (=ATCC25586); gene amplified from genomic DNA with primers from the start codon to the stop codon; theoretical molecular weight printed as 40.0 kDa; No removal of the vector's tag is described; the printed theoretical mass (40.0 kDa) may include the leader of pCold I (surmise); The …
K0.5 [6]: 0.34 (0.007) mM | kcat [6]: 80 s⁻¹ | kcat/Km [6]: 230000 M⁻¹ s⁻¹ | K0.5 [7]: 0.31 (0.006) mM | kcat [7]: 140 s⁻¹ | kcat/Km [7]: 440000 M⁻¹ s⁻¹ | K0.5 [8]: 0.68 (0.01) mM | kcat [8]: 140 s⁻¹ | kcat/Km [8]: 200000 M⁻¹ s⁻¹ | K0.5 [9]: 0.022 (0.0005) mM | kcat [9]: 98 s⁻¹ | kcat/Km [9]: 4.4e+06 M⁻¹ s⁻¹ | K0.5 [10]: 2.5 (0.09) mM | kcat [10]: 80 s⁻¹ | kcat/Km [10]: 31000 M⁻¹ s⁻¹ | stoichiometry N [11]: 4

B2: PALDH (Pseudomonas aeruginosa PAO1) (protein)
chain: MRILFFSSQAYDSESFQASNHRHGFELHFQQAHLQADTAVLAQGFEVVCAFVNDDLSRPVLERLAAGGTRLVALRSAGYNHVDLAAAEALGLPVVHVPAYSPHAVAEHAVGLILTLNRRLHRAYNRTREGDFSLHGLTGFDLHGKRVGVIGTGQIGETFARIMAGFGCELLAYDPYPNPRIQALGGRYLALDALLAESDIVSLHCPLTADTRHLIDAQRLATMKPGAMLINTGRGALVNAAALIEALKSGQLGYLGLDVYEEEADIFFEDRSDQPLQDDVLARLLSFPNVVVTAHQAFLTREALAAIADTTLDNIAAWQDGTPRNRVRA
K0.5 [12]: 0.10 (0.009) mM | kcat [12]: 400 s⁻¹ | kcat/Km [12]: 4e+06 M⁻¹ s⁻¹ | K0.5 [13]: 0.64 (0.01) mM | kcat [13]: 100 s⁻¹ | kcat/Km [13]: 150000 M⁻¹ s⁻¹ | K0.5 [14]: 0.019 (0.0005) mM | kcat [14]: 310 s⁻¹ | kcat/Km [14]: 1.7e+07 M⁻¹ s⁻¹ | K0.5 [15]: 3.0 (0.2) mM | kcat [15]: 420 s⁻¹ | kcat/Km [15]: 140000 M⁻¹ s⁻¹ | K0.5 [16]: 1.7 (0.06) mM | kcat [16]: 410 s⁻¹ | kcat/Km [16]: 230000 M⁻¹ s⁻¹

B3: NAD-dependent D-lactate dehydrogenase from Escherichia coli (enzyme, E. coli BL21(DE3), UniProt P52643 1-329, looked up)
chain: MKLAVYSTKQYDKKYLQQVNESFGFELEFFDFLLTEKTAKTANGCEAVCIFVNDDGSRPVLEELKKHGVKYIALRCAGFNNVDLDAAKELGLKVVRVPAYDPEAVAEHAIGMMMTLNRRIHRAYQRTRDANFSLEGLTGFTMYGKTAGVIGTGKIGVAMLRILKGFGMRLLAFDPYPSAAALELGVEYVDLPTLFSESDVISLHCPLTPENYHLLNEAAFEQMKNGVMIVNTSRGALIDSQAAIEALKNQKIGSLGMDVYENERDLFFEDKSNDVIQDDVFRRLSACHNVLFTGHQAFLTAEALTSISQTTLQNLSNLEKGETCPNELV
notes: gene amplified from genomic DNA with primers from the start codon to the stop codon; theoretical molecular weight printed as 38.5 kDa; No removal of the vector's tag is described; the printed theoretical mass (38.5 kDa) may include the leader of pCold I (surmise); A second peak at the position of an octamer was seen and put down as a likely artefact of overexpression; also called ECLDH; …
K0.5 [17]: 2.6 (0.09) mM | kcat [17]: 410 s⁻¹ | kcat/Km [17]: 160000 M⁻¹ s⁻¹ | K0.5 [18]: 0.055 (0.004) mM | kcat [18]: 640 s⁻¹ | kcat/Km [18]: 1.2e+07 M⁻¹ s⁻¹ | K0.5 [19]: 12 (0.3) mM | kcat [19]: 50 s⁻¹ | kcat/Km [19]: 4200 M⁻¹ s⁻¹ | K0.5 [20]: 20 (2) mM | kcat [20]: 100 s⁻¹ | kcat/Km [20]: 5300 M⁻¹ s⁻¹ | stoichiometry N [11]: 4
